# Assay results as given in patent EP4725501A1 (Staidson (Beijing) Biopharmaceuticals Co., Ltd., dated 2026).
# Read-outs that look alike come from different tables or passages of the source.
# T1: MASP3 in Factor D depleted human plasma (human, UniProt P48740-2 20-728)
# T1 sequence (looked up): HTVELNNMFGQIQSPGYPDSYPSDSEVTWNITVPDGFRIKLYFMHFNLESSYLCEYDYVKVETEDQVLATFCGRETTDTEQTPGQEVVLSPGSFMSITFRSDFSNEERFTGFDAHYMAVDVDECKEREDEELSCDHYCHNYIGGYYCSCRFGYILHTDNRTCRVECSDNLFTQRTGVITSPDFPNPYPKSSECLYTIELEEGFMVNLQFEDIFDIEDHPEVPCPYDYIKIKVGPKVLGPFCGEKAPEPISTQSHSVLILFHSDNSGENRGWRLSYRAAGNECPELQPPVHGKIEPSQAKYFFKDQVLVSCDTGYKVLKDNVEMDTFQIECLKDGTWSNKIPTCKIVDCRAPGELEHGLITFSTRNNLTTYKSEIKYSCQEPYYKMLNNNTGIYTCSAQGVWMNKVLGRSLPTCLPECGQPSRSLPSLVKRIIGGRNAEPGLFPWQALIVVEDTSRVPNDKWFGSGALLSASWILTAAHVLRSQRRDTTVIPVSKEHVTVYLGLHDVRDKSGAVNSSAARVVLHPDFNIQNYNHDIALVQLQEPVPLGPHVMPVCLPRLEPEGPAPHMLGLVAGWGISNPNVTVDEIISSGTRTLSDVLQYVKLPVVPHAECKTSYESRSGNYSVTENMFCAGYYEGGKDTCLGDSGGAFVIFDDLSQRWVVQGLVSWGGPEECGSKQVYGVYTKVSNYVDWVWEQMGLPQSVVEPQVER
# Tests used:
# [1] = target: T2, MASP2 in normal human plasma (human, UniProt O00187 16-686); assay: cell-based or functional assay
# [2] = target: T2, MASP2 in normal human plasma; assay: cell-based or functional assay; remark: listed apart in the source
# [3] = target: T3, human MASP2 (R444Q) - His (human, UniProt O00187 16-686); assay: ELISA; human MASP2 (R444Q)-His coated 0.1 ug/well, antibody titrated, goat anti-human IgG HRP
# T3 construct: not shown: His tag at the C-terminus
# [4] = target: T1, MASP3 in Factor D depleted human plasma; assay: cell-based or functional assay
# T2 sequence (O00187 16-686 limits assumed): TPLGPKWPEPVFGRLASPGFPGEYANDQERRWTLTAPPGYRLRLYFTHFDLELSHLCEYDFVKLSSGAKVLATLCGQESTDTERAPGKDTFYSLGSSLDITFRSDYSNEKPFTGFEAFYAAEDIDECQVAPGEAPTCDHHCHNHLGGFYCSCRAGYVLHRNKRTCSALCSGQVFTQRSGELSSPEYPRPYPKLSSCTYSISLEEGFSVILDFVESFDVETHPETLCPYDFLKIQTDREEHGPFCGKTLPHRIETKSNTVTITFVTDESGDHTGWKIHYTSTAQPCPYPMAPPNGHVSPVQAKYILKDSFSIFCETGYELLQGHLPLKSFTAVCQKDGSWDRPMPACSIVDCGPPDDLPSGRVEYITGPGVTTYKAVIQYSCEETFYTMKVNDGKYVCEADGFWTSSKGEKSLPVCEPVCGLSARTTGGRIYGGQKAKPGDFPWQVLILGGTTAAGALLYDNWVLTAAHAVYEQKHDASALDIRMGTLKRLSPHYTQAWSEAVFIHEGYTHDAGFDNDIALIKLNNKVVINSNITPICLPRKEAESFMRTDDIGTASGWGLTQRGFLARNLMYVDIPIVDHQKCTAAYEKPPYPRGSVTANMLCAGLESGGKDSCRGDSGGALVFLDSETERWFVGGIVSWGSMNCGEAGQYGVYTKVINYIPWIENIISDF
# T3 sequence (O00187 16-686 R444Q limits assumed): as the sequence (O00187 16-686 limits assumed) above, with R429Q counted along it
"IC50 (nM), inhibition of complement C4b deposition (mannan-coated plate, 1% human plasma) [1] [nM]","IC50 (nM), inhibition of complement C4b deposition (mannan-coated plate, 1% human plasma) [2] [nM]",EC50 [3] [nM],Binder,Inhibit hemolysis IC50 [4] [nM]
0.037,0.05,0.089,"humM2mc51-1-S93A (antibody, V domains shown, VL CDR3 deamidation-site mutant of humM2mc51-1; also called humM2mc51-S93A) VH: QVQLQESGPGLVKPSETLSLTCTVSGYSITSDYAWNWIRQPPGKKLEWMGYISYSGRTSYNPSLKSRITISRDTSKNQFSLKLSSVTAADTAVYYCSRHYGDYWGQGTLVTVSS VL: EIVMTQSPATLSVSPGERATLSCKASQNVGTNVAWYQQKPGQSPRALIYSASYRYSGIPARFSGSGSGTEFTLTISSLQSEDFAVYFCHQYNANPLTFGGGTKVEIK",–
–,0.16,–,humM2mc51-1-S93A+M3-K2-5-CrossMab-IgG1 (bispecific antibody) heavy 1: QVQLQESGPGLVKPSETLSLTCTVSGYSITSDYAWNWIRQPPGKKLEWMGYISYSGRTSYNPSLKSRITISRDTSKNQFSLKLSSVTAADTAVYYCSRHYGDYWGQGTLVTVSSASVAAPSVFIFPPSDEQLKSGTASVVCLLNNFYPREAKVQWKVDNALQSGNSQESVTEQDSKDSTYSLSSTLTLSKADYEKHKVYACEVTHQGLSSPVTKSFNRGECDKTHTCPPCPAPEAAGGPSVFLFPPKPKDTLMISRTPEVTCVVVDVSHEDPEVKFNWYVDGVEVHNAKTKPREEQYNSTYRVVSVLTVLHQDWLNGKEYKCKVSNKALPAPIEKTISKAKGQPREPQVCTLPPSRDELTKNQVSLSCAVKGFYPSDIAVEWESNGQPENNYKTTPPVLDSDGSFFLVSKLTVDKSRWQQGNVFSCSVMHEALHNHYTQKSLSLSPGK light 1: EIVMTQSPATLSVSPGERATLSCKASQNVGTNVAWYQQKPGQSPRALIYSASYRYSGIPARFSGSGSGTEFTLTISSLQSEDFAVYFCHQYNANPLTFGGGTKVEIKSSASTKGPSVFPLAPSSKSTSGGTAALGCLVKDYFPEPVTVSWNSGALTSGVHTFPAVLQSSGLYSLSSVVTVPSSSLGTQTYICNVNHKPSNTKVDKKVEPKSC heavy 2: not shown light 2: EIVLTQSPATLSVSPGERATLSCKSSQNLFNSRTRKNYLAWFQQKPGQSPRLLIYWASTRESGIPARFSGSGSGTEFTLTISSLQSEDFAVYYCKQSYIPFTFGGGTKVEIKRTVAAPSVFIFPPSDEQLKSGTASVVCLLNNFYPREAKVQWKVDNALQSGNSQESVTEQDSKDSTYSLSSTLTLSKADYEKHKVYACEVTHQGLSSPVTKSFNRGEC,6.21
